# Measured values taken from US7666644B2, “Glyphosate-N-acetyltransferase (GAT) genes” (Verdia, Inc., priority 2004, dated 2010).
# How the values were obtained:
# N[C@@H](CC(=O)O)C(=O)O = assay: purified protein, by the assay type; settings: other: 25 mM Hepes, pH 6.8, 10% ethylene glycol
# Protocol: (§1) GAT activity of several GAT polypeptides of the present invention was evaluated with respect to a number of amino acid substrates. The GAT polypeptide, AcCoA and amino substrate were incubated in 25 mM Hepes, pH 6.8, 10% ethylene glycol in the wells of a 96-well polystyrene plate. After 30 minutes, the reactions were stopped by the addition of 30 μl of 10 mM 5,5′-dithiobis-2-nitrobenzoate (DTNB) in 500 mM Tris, pH 7.5. After 2 minutes, absorbance was read at 412 nm in a Spectramax Plus plate reader (Molecular Devices, Sunnyvale, Calif.).
# O=C(O)CNCP(=O)(O)O = assay: purified protein, by the assay type; settings: other: 25 mM Hepes, pH 6.8, 10% ethylene glycol
# Protocol: as §1
# N[C@@H](CO)C(=O)O = assay: purified protein, by the assay type; settings: other: 25 mM Hepes, pH 6.8, 10% ethylene glycol
# Protocol: as §1
# tobacco plants = assay: Herbicide spray tests of GAT expressing tobacco plants; format: in vivo, Nicotiana tabacum
# Protocol: Tobacco shoots generated as described in EXAMPLE 9 were excised from the explants and transferred to basal root induction (BRI) medium composed of half-strength Murashige and Skoog (MS) medium, pH 5.7, with 1.5% sucrose, 0.3% Gelrite, 0-200 uM glyphosate and 400 ug/ml Timentin. Rooted plants and axillary shoots were clonally propagated by cutting the stem and transferring it to fresh BRI medium until the desired number of clones was obtained. Rooted plants were carefully removed from the solid medium. Prior to placing the plants into small pots of soil, the roots were washed to remove any remaining Gelrite. A protective plastic cover was kept over the plants for at least one week until the plants were well established.
# To determine if GAT expressing tobacco plants could tolerate simulated field rate sprays of glyphosate, clonal lines of several events per GAT variant were tested. A typical test was set up as follows: One clone from each event was sprayed with 1 ml of solution containing the isopropylamine salt of glyphosate (Sigma P5671) and 0.125% Triton X-100, pH 6.8 such that the amount of active ingredient sprayed was equivalent to that present in commercial glyphosate products. For example, to achieve 32 oz/acre (1×) of herbicide containing 40% active ingredient (“ai”), 2.4 ul of 40% ai formulation was diluted into 1 ml water and sprayed on a plant in a 4-inch square pot (16 in^2). A mock application (0×) with surfactant only was also included. In some cases a second spray was applied 1-4 weeks later. Plants were kept in controlled growth rooms at 25° C. and 70% humidity with 16 hr light.
# Seed-grown wild type plants were also sprayed. […] All 0× plants were healthy, including the non-GAT control plants. Three weeks later all of the surviving plants were sprayed with an 8× dose.
# [1] = Kinetic parameters by continuous spectrophotometric assay in the presence of 20 mM KCl, protein quantified via UV absorbance; format: biochemical; settings: templates GAT 24-5H5 or GAT 25-8H7
# Protocol: The further evolved gat genes were first selected for growth in E. coli in minimal M9 medium as described in Example 8, except that 5 mM rather than 1 mM glyphosate was used in the selection. Proteins were purified as described in Example 6 above.
# Protein concentrations were determined by UV absorbance at 205 nm. The extinction coefficient was determined by the method described by Scopes (1994; Protein Purification, Principles and Practice, Springer, NewYork) according to the formula E (mg ml^−1 cm^−1)=27+120(A280/A205)=30.5. Prior to quantitation by UV absorbance the protein solution was buffer-exchanged into 50 mM Na2SO4 using a NAP-5 column (Amersham-Pharmacia Biotech).
# Error bars represent the standard deviation of multiple assays, where available.
# [2] = format: physicochemical; settings: buffer, pH 7.2
# Protocol: The half lives of several GAT polypeptides were also measured at 37.5° C. according to the following procedure. GAT polypeptides 401 (SEQ ID NO: 6), 17-15H3 (SEQ ID NO: 601), 20-8H12 (SEQ ID NO: 739), 22-13B12 (SEQ ID NO: 781), 22-15B4 (SEQ ID NO: 946) and 22-18C5 (SEQ ID NO: 795) were incubated in a matrix of 25 mM Hepes, pH 7.2, 10 mM KCl and 10% methanol (“HKM”). At various timepoints, aliquots were withdrawn and assayed in triplicate at 22° C. using the continuous spectrophotometric assay described in Example 7 using saturating concentrations of glyphosate (20 mM for 401, 5 mM for the rest) and AcCoA (167 uM). The standard error at each time point averaged about 2.9%. GAT activity was plotted as a function of incubation time and the data was fitted to a curve for exponential decay (y=e^−x), where y is enzyme activity and x is time in hours, from which half life was calculated.
molecule,measurement,setting,value
"non-native GAT polypeptide 25-8H7 (glyphosate-N-acetyltransferase), SEQ ID NO: 907 (Bacillus licheniformis DSM 13 = ATCC 14580; E119R/E14D/E65Q/E67K/E68K/G37R/G38S/I132T/I135V/I15L/I19V/I53V/I91V/K101R/K144R/K58Q/L105M/L106I/L145I/L26I/L36T/L97I/M75V/R47G/R92K/T33S/T89S/V114A/Y130F/Y31F/Y45F)",Km,N[C@@H](CC(=O)O)C(=O)O,4.56 ± 0.112 MM
same,kcat,N[C@@H](CC(=O)O)C(=O)O,11.7 ± 0.207 s⁻¹
same,kcat/Km,N[C@@H](CC(=O)O)C(=O)O,2570 M⁻¹ s⁻¹
same,Km,O=C(O)CNCP(=O)(O)O,0.05 MM
same,kcat,O=C(O)CNCP(=O)(O)O,24.7 ± 1.09 s⁻¹
same,kcat/Km,O=C(O)CNCP(=O)(O)O,493000 M⁻¹ s⁻¹
"native GAT polypeptide 401 (glyphosate-N-acetyltransferase), wild type, SEQ ID NO: 6 (Bacillus licheniformis DSM 13 = ATCC 14580)",Km,N[C@@H](CC(=O)O)C(=O)O,6.7 MM
same,kcat,N[C@@H](CC(=O)O)C(=O)O,0.402 s⁻¹
same,kcat/Km,N[C@@H](CC(=O)O)C(=O)O,60 M⁻¹ s⁻¹
same,Km,O=C(O)CNCP(=O)(O)O,1.27 ± 0.0144 MM
same,kcat,O=C(O)CNCP(=O)(O)O,0.08917 ± 0.000717 s⁻¹
same,kcat/Km,O=C(O)CNCP(=O)(O)O,70.2 M⁻¹ s⁻¹
same,Km,N[C@@H](CO)C(=O)O,43 MM
same,kcat,N[C@@H](CO)C(=O)O,14.2 s⁻¹
same,kcat/Km,N[C@@H](CO)C(=O)O,330 M⁻¹ s⁻¹
"non-native GAT polypeptide 17-15H3 (glyphosate-N-acetyltransferase), SEQ ID NO: 601 (Bacillus licheniformis DSM 13 = ATCC 14580; E119K/E65Q/E67Q/E68K/G37R/I132T/I135V/I15L/K101R/K144R/K58Q/L145I/L26I/L97I/R47G/R92K/T33S/T89S/V114A/Y130F/Y31F)",Km,N[C@@H](CC(=O)O)C(=O)O,2.95 ± 0.162 MM
same,kcat,N[C@@H](CC(=O)O)C(=O)O,7.25 ± 0.188 s⁻¹
same,kcat/Km,N[C@@H](CC(=O)O)C(=O)O,2470 M⁻¹ s⁻¹
same,Km,O=C(O)CNCP(=O)(O)O,0.251 ± 0.0041 MM
same,kcat,O=C(O)CNCP(=O)(O)O,19.2 ± 0.46 s⁻¹
same,kcat/Km,O=C(O)CNCP(=O)(O)O,76200 M⁻¹ s⁻¹
same,Km,N[C@@H](CO)C(=O)O,60.1 ± 1.68 MM
same,kcat,N[C@@H](CO)C(=O)O,4.03 ± 0.263 s⁻¹
same,kcat/Km,N[C@@H](CO)C(=O)O,67.3 M⁻¹ s⁻¹
"0—5B8: evolved GAT gene, SEQ ID NO:190 (nucleic acid, Synthetic nucleic acid sequence; 0_5B8) DNA: ATGATAGAGGTGAAACCGATTAACGCAGAGGATACCTATGAACTAAGGCATAAAATACTCAGACCAAACCAGCCGATAGAAGCGTGTATGTATGAAAGCGATTTACTTCGTGGTGCATTTCACTTAGGCGGCTTTTACAGGGGCAAACTGATTTCCATAGCTTCATTCCACCAGGCCGAGCACTCAGACCTCCAAGGCCAGAAACAGTACCAGCTCCGAGGTATGGCTACCTTGGAAGGTTATCGTGATCAGAAAGCGGGATCGAGTCTAATTAGACACGCTGAACAAATTCTTCGTAAGAGGGGGGCGGACTTGCTTTGGTGCAATGCGCGGACATCCGCCTCAGGCTACTACAAAAAGTTAGGCTTCAGCGAGCAGGGAGAGATATTTGATACGCCGCCAGTAGGACCTCACATCCTGATGTATAAAAGGCTCACA",outcome two weeks after glyphosate spray,"tobacco plants; 0.5, 2 or 4× glyphosate (1× = 32 oz/acre of 40% ai), clonally propagated events, average of 5 leaves",survived the spraying procedure without signs of glyphosate damage
same,outcome after second spray with an 8× dose,tobacco plants; 8× glyphosate three weeks later,survived
"R12G1: further evolved GAT enzyme, SEQ ID NO 917 (protein, R12G1) MIEVKPINAEDTYDLRHRVLRPNQPIEACMFESDLTRGAFHLGGFYGGKLISVASFHQAEHTELQGKKQYQLRGVATLEGYREQKAGSSLVKHAEEILRKRGADMIWCNARTSASGYYRKLGFSEQGEVFDTPPVGPHILMYKRIT",GAT activity compared with the template polypeptides,[1],extremely high GAT activities comparable to those of the template polypeptides
"22-13B12: GAT polypeptide, SEQ ID NO: 781 (protein, D_S00397672_22-13B12) MIEVKPINAEDTYDLRHRVLRPNQPIEACMFESDLMRGAFHLGGFYGGKLISVASFHQAEHSELQGQKQYQLRGMATLEGYREQKAGSSLVKHAEEILRKRGADILWCNARTSASGYYRKLGFSEQGEVFDTPPVGPHILMYKRIT",Half-life,[2],67 h
"R12G3: further evolved GAT enzyme, SEQ ID NO:921 (protein, R12G3) MIEVKPINAEDTYDLRHRVLRPNQPIEACMFDNDLTRGAFHLGGFYGGKLISVASFHQAEHSELQGKKQYQLRGVATLEGYREQKAGSSLVKHAEEILRKRGADMIWCNARTSASGYYRKLGFSEQGEVFDTPPVGPHILMYKRIT",GAT activity compared with the template polypeptides,[1],extremely high GAT activities comparable to those of the template polypeptides
"R12G5: further evolved GAT enzyme, SEQ ID NO:925 (protein, R12G5) MIEVKPINAEDTYELRHRVLRPNQPIEACMFDSDLTRGAFHLGGFYGGKLISVASFHQAEHSELQGKKQYQLRGVATLEGYREQKAGSSLVKHAEEILRKRGADMIWCNARTSASGYYRKLGFSEQGEVFDTPPVGPHILMYKRIT",GAT activity compared with the template polypeptides,[1],extremely high GAT activities comparable to those of the template polypeptides
"R12G7: further evolved GAT enzyme, SEQ ID NO:929 (protein, R12G7) MIEVKPINAEDTYDLRHRVLRPNQPIEACMFDNDLMRGAFHLGGFHGGKLISVASFHQAEHTELQGQKQYQLRGVATLEGYREQKAGSSLVKHAEEILRKRGADMLWCNARTSASGYYRKLGFSEQGEVFDTPPVGPHILMYKRIT",GAT activity compared with the template polypeptides,[1],extremely high GAT activities comparable to those of the template polypeptides
"R12G8: further evolved GAT enzyme, SEQ ID NO:931 (protein, R12G8) MIEVKPINAEDTYDLRHRVLRPNQPIEACMFDNDLMRSAFHLGGFHGGKLISVASFHQAEHTELQGQKQYQLRGVATLEGYREQKAGSSLVKHAEEILRKRGADMLWCNARTSASGYYRKLGFSEQGEVFDTPPVGPHILMYKRIT",GAT activity compared with the template polypeptides,[1],extremely high GAT activities comparable to those of the template polypeptides
"R12G2: further evolved GAT enzyme, SEQ ID NO:919 (protein, R12G2) MIEVKPINAEDTYDLRHRVLRPNQPIEACMFESDLTRSAFHLGGFYGGKLISVASFHQAEHTELQGKKQYQLRGVATLEGYREQKAGSSLVKHAEEILRKRGADMIWCNARTSASGYYRKLGFSEQGEVFDTPPVGPHILMYKRIT",GAT activity compared with the template polypeptides,[1],extremely high GAT activities comparable to those of the template polypeptides
"R12G6: further evolved GAT enzyme, SEQ ID NO:927 (protein, R12G6) MIEVKPINAEDTYDLRHRVLRPNQPIEACMFDNDLTRSAFHLGGFYGGKLISVASFHQAEHSELQGKKQYQLRGVATLEGYREQKAGSSLVKHAEEILRKRGADMIWCNARTSASGYYRKLGFSEQGEVFDTPPVGPHILMYKRIT",GAT activity compared with the template polypeptides,[1],extremely high GAT activities comparable to those of the template polypeptides
"R12G4: further evolved GAT enzyme, SEQ ID NO:923 (protein, R12G4) MIEVKPINAEDTYELRHRVLRPNQPIEACMFDSDLTRSAFHLGGFYGGKLISVASFHQAEHSELQGKKQYQLRGVATLEGYREQKAGSSLVKHAEEILRKRGADMIWCNARTSASGYYRKLGFSEQGEVFDTPPVGPHILMYKRIT",GAT activity compared with the template polypeptides,[1],extremely high GAT activities comparable to those of the template polypeptides
